Data taken from article doi:10.1101/258194 (bioRxiv, 2018).

T1: Zip2^499-704 (XPF-like region), recombinant, co-expressed with His6-Spo16 (S. cerevisiae, UniProt P53061 499-704)
T1 sequence: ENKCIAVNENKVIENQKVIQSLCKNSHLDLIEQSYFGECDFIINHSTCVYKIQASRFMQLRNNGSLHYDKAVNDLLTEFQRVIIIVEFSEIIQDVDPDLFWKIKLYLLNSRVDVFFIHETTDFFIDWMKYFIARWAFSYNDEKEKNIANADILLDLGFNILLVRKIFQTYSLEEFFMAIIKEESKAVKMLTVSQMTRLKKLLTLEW

T2: Zip2^499-704, surface-lysine methylated (Form 1 crystals) (S. cerevisiae, UniProt P53061 499-704)
T2 sequence: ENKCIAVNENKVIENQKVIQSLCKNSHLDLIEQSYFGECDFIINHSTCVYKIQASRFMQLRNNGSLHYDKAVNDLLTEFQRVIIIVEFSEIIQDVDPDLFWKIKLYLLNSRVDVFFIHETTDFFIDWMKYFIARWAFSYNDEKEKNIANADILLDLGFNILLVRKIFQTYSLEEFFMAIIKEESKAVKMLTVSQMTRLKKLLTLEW


How the values were obtained:
[1] = biological target: T1, Zip2^499-704 (XPF-like region), …; test: SEC-MALS
[2] = biological target: T2, Zip2^499-704, surface-lysine methylated …; test: crystal structure

Row | stoichiometry N [1] | binding result [2] | Binder
1 | 1 | – | His6-Spo16 (full-length Spo16 with TEV-cleavable N-terminal His6-tag), recombinant (natural protein) SEFFWDVQKIQEISNVEEHSVVKCVTVNTSRLISQLNEELQDEESGVNFIVTQLQLLINNVYEKIQKSPGVPAHRSLMINLNFTRLKFSIAYWDILLERSLDLINGPSKTGARYFITEVTPVDRSRYVENNQYFLAFKANQRLTRNSVDMDEFIDFEILIKQIIFDLFKKNGIPDQDFEAILSRFHNLESLVVAFNE
2 | – | binds | His6-Spo16, surface-lysine methylated (Form 1 crystals) (natural protein, surface lysines dimethylated (positions not listed)) SEFFWDVQKIQEISNVEEHSVVKCVTVNTSRLISQLNEELQDEESGVNFIVTQLQLLINNVYEKIQKSPGVPAHRSLMINLNFTRLKFSIAYWDILLERSLDLINGPSKTGARYFITEVTPVDRSRYVENNQYFLAFKANQRLTRNSVDMDEFIDFEILIKQIIFDLFKKNGIPDQDFEAILSRFHNLESLVVAFNE
